# Experimental data from US20250019465A1, “COMPOSITIONS AND METHODS FOR RARE HEPARAN SULFATE GLYCAN-TARGETED CANCER TREATMENT” (THE BOARD OF REGENTS OF THE UNIVERSITY OF TEXAS SYSTEM, priority 2021, published 2025).
# B1: 1A7: single domain antibody clone, single variable heavy chain (VH), SEQ ID NO: 18, specific for rare heparan sulfate glycan (Glycan #12) (protein)
# VHH: QVQLLESGGGLVQPGGSLRLSCAASGVKVSTKSMGWVRQAPGKGLEWVSTIARNDGSTYYADSVKGRFTISRDNSKNTLYLQMNSLRAEDTAVYYCARMKKNGGSKRQPHIRSWGQGTLVTVSS
# modifications: Synthetic construct - Clone 1A7
# Tests used:
# RenCa kidney cancer = RenCa kidney cancer tumor, intra-tumoral glycan injection; type: in vivo, BALB/c mice
# Description: (§1) B16 melanoma cells (5×10^5 cells/mouse) were implanted s.c. into B6 mice (n=4); on day 6, 1 mg of Glycan #3 (G3) or Glycan #12 (G12, see FIG. 1A) was injected intra-tumorally 5 times every 2 days. Tumor volume was measured (FIG. 10A). On day 17, tumors (photos of 2 representatives) were excised. […] Similar experiments were performed with RenCa kidney cancer in BALB/c mice and data are shown in FIG. 10C (tumor volume) and 10D (expression of angiogenic factors). Data shown is representative of 2 experiments. *p<0.0001.
# [1] = test system: DC-HIL-induced angiogenesis; experiment: Matrigel plug assay of DC-HIL-induced angiogenesis; type: in vivo, mice; settings: DC-HIL-Fc 200 nM with 10× molecular excess of glycan in matrigel, s.c., 2 weeks
# Description: In order to test the role rHS (Glycan #12) plays in controlling angiogenesis, DC-HIL-Fc (DCH) or Fc (200 nM) was mixed with 10× molecular excess of Glycan #3 or Glycan #12 (See FIG. 1A) and added to matrigel, and implanted s.c. into mice; 2 weeks later, plugs were excised and observed for blood vessels under microscope. Representative photos are shown (FIG. 9A). Plugs were quantified for Hb content (FIG. 9B). Red-dashed line indicates Hb level in Fc-control plug. Data are shown average±SD, n=4.
# DC-HIL-Fc = DC-HIL-Fc binding to HS oligosaccharide microarray; settings: DC-HIL-Fc 10 mg/ml, visualized by Cy-3, FIG. 1B
# Description: Various HS oligosaccharides (4-8-mers of HS disaccharide) were imprinted on microarray (Gycan Therapeutics Inc). These glycans were chosen based on sulfation patterns in mammalian cells (FIG. 1A). DC-HIL-Fc (10 mg/ml) was applied and then hybridized to the microaway and visualized by Cy-3 (mean±SD, n=6). […] SVEC mouse endothelial cells or activated T-cells were then incubated with DC-HIL-Fc (10 mg/ml) plus indicated oligoglycans, and DC-HIL binding was fluorescently stained with anti-Fc Ab and FACS analysis. FIG. 1C provides histograms showing binding of Fc control (blue) or DC-HIL-Fc (red), respectively.
# B16 melanoma cells [2] = experiment: B16 melanoma s.c. tumor, intra-tumoral glycan injection; type: in vivo, B6 mice
# Description: as §1
# LL2 cells = experiment: Experimental lung metastasis after i.v. injection of LL2 cells; type: in vivo, mice; settings: day 18, vs KLH
# Description: (§2) On day 6 after implantation s.c. of B16 melanoma cells (2×10^5 cells/mouse), mice were treated i.p. with 1A7 or KLH Ab (10 mg/mouse, every 2 days, 5×, shown by reverse arrows). In separate experiments, tumor free mice were injected intravenously (i.v) with 1A7 or KLH (10 mg/mouse) either one day before (d-1) or one day after (d1) intravenous (i.v) injection with B16 or LL2 cells (2×10^5 cells/mouse, n=5). On day 12 (for mice injected with B16 cells) or day 18 (for mice injected with LL2 cells), the number of GFP+ cells in 5×10^5 lung cells was determined via FACS. FIG. 11C-11E summarize numbers of positive cells in each condition.
# LacZ-LL2 cells = experiment: Spontaneous lung metastasis from resected s.c. LacZ-LL2 primary tumor; type: in vivo, mice; settings: Ab injection every 3 days after tumor resection, lungs 2 weeks later
# Description: Briefly, mice were implanted s.c. with LacZ-LL2 cells, 2 weeks later, tumor was resected surgically. Mice were then treated with Ab injection every 3 days. 2 weeks later, lungs were excised and stained with X-gal (labeled LacZ-LL2 cells in blue) and blue stains were counted. FIG. 17B provides representative images of lung sections stained with X-gal, showing by green or red arrows. The number of tumor cells per field of view (FOV) were counted and plotted in FIG. 17C alongside and average of 5 FOVs. Each dot represents an individual mouse.
# B16 melanoma cells [3] = experiment: B16 melanoma s.c. tumor growth, i.p. 1A7 or KLH Ab; type: in vivo, mice; settings: 10 mg/mouse i.p. every 2 days 5× from day 6, vs KLH Ab
# Description: as §2
# B16F10 melanoma cells = experiment: B16F10 melanoma s.c. tumor growth and tumor IHC, rHS Ab vs PD1 Ab; type: in vivo, B57BL/6 mice
# Description: Antitumor activity of rHS Ab to B16 melanoma was examined. Briefly, B16F10 melanoma cells (5×10^5 cells/mouse) were implanted s.c. into B57BL/6 mice (n=5). Six days later, mice were treated with i.p. injection of Ab every 2 days; 1A7 rHS Ab (20 mg/mouse), PD1 ([…]), rHS/PD1 (20 mg and 200 mg, respectively) or control (Ctrl) Ab ([…]). Tumor volume was measured every 2 days (FIG. 20A). On day 15, all mice were euthanized, tumors were excised and IHC-stained with marker Ab (CD4, CD8, CD11b, and CD31) (FIG. 20B). Positive staining is assayed by % positively stained areas in 4.5 mm2 view (mean±sd, n=5). […] Thus, rHS Ab inhibited melanoma growth, reversing immune suppression and tumor angiogenesis.
# [4] = ELISA: DC-HIL-Fc binding to Glycan #12-coated wells with increasing dose of 1A7 SdAb; settings: DC-HIL-Fc 1 mg/ml, increasing dose of 1A7 SdAb, FIG. 3D
# Description: SdAbs were obtained as described in Example 2. All SdAb clones were purified from DNA-transfected CHO cells. […] Biotinylated Glycan #12 (0.5 mg/ml) was immobilized to ELISA wells precoated with streptavidin (1 mg/ml) and incubated with increasing doses of 1A7 SdAb (FIG. 3A), FGF2 (negative control, FIG. 3B) and VEGF (positive control, FIG. 3C). After incubating for 1 h, wells were washed and binding measured by anti-c-myc Ab (OD450); SdAb has the C-terminal c-myc tag. In FIG. 3D, DC-HIL-Fc (1 mg/ml) was incubated with Glycan #12-coated wells, with increasing dose of 1A7 SdAb. % inhibition is shown. […] In FIG. 3E: FGF2 or VEGF (0.25 or 0.5 mg/ml) was added to Glycan #12-wells with 0.5 mg/ml of 1A7 or control SdAb (Ctrl), which is specific for KLH. % inhibition is shown. To examine the expression of the 1A7 epitope, immortalized murine […] cells (SVEC) were treated with 50 mM Sodium Cholate (red histogram) or untreated (Blue). Next day, cells were analyzed by FACS for expression of 1A7 epitope (FIG. 3F). […] FIG. 3H summarizes all data from experiments of binding/inhibition and expression analysis on different tumor lines. “Block DC-HIL (or VEGF or FGF2)” means blocking of binding to Glycan #12.
# Pan-T cells = experiment: Anti-CD3-induced Pan-T cell proliferation (3H-thymidine) on wells coated with 1A7; type: cell-based, human; settings: wells pre-coated with 4 mg/well Ab plus increasing doses of anti-CD3 Ab, 2 days, vs KLH control Ab
# Description: The ability of 1A7 to affect induction of T-cell activation using anti-CD3 antibodies was tested. Pan-T cells isolated from blood sample of a healthy donor were incubated with wells (2×10^5 cells/well) pre-coated with 1A7 or KLH control Ab (4 mg/well) plus increasing doses of anti-CD3 Ab. After incubation for 2 days, ^3H-thymidine was pulsed for 16 h, harvested, and counted for cpm in cells. […] Data are shown average±SD, n=3
# [5] = test system: human SK-MEL-28 melanoma cell line; experiment: Lung metastasis of human SK-MEL-28 melanoma cells in xenograft NSG mice; type: in vivo; settings: single i.v. injection 10 mg/mouse one day before SK-MEL-28 i.v., Day 14, vs KLH
# Description: A final experiment was performed to determine the effect of an anti-rHS antibody on human lung metastasis in a xenograft mouse model. Immuno-deficient NSG mice (n=5) were injected i.v. with KLH or 1A7 SdAb (10 mg/mouse). Next day, mice were given i.v. injection of 2×10^5 human SK-MEL-28 melanoma cell line. Note: Ab injection is just one time. On Day 14, lung was enumerated by FACS for GFP^+ cells (FIG. 16A) and the number in 5×10^5 lung cells (average±sd, n=5) are summarized (FIG. 16B). *p<0.0001. Data are representative of 2 separate experiments. 1A7 single injection decreased human melanoma in lung by 84% (FIGS. 16A and 16B).
# B16 cells = experiment: Experimental lung metastasis after i.v. injection of B16 cells; type: in vivo, mice
# Description: as §2
# 1A7 SdAb was compared to other standard treatments (e.g., anti-PDL1 antibody, anti-VEGFR2 antibodies) for its ability to inhibit metastasis using the B16 cell model. Mice (n=5) were injected i.v. with KLH, 1A7 SdAb (10 mg/mouse), anti-DC-HIL (DCH), anti-PDL1 (PL1), anti-VEGFR2 (VER) or combined PL1/VER (PL/VE) mAb ([…]). Next day, mice were given i.v. injection of 2×10^5 B16 cells/mouse. Note: Ab injection was a one-time treatment. On Day 14, lung was enumerated by FACS for GFP^+ cells (FIG. 12A) and the number in 5×10^5 lung cells (average±sd, n=5) are summarized (FIG. 12B). *p<0.0001; **p=0.007. Data are representative of 2 separate experiments. […]
# [6] = HS glycan microarray analysis of 1A7 SdAb (53 glycan compounds); type: binding; settings: 1A7 SdAb 10 μg, anti-c-myc label, FIG. 4
# Description: 1A7 SdAb (10 μg) was hybridized with HS glycan microarray consisting of 53 glycan compounds (Glycan Therapeutics Inc) and fluorescently labeled with anti-c-myc. Hybridized arrays were analyzed for fluorescence intensity (U); average±sd, n=100). SdAb has the C-terminal c-myc tag.
molecule,measurement,setting,value
GlcNS6S-GlcA-GlcNS6S-IdoA2S-GlcNS6S-IdoA2S-GlcNS6S-GlcA [Glycan #12],Tumor volume (growth of kidney cancer),"RenCa kidney cancer; RenCa in BALB/c mice, intra-tumoral glycan",markedly attenuated growth
same,tumor expression of angiogenic factors (qRT-PCR relative to GAPDH),RenCa kidney cancer; RenCa tumors,inhibited tumor expression of angiogenic factors
same,"DC-HIL-induced angiogenesis (blood vessels, Hb content of plugs)",[1],completely abrogated
same,binding of DC-HIL-Fc to each glycan as average RFU,DC-HIL-Fc,strongest binding
same,Tumor volume (growth of melanoma),"B16 melanoma cells [2]; B16 s.c. in B6 mice, 1 mg glycan intra-tumorally 5 times every 2 days from day 6",markedly attenuated growth
same,tumor expression of angiogenic factors (qRT-PCR relative to GAPDH),B16 melanoma cells [2]; B16 tumors excised on day 17,inhibited tumor expression of angiogenic factors
B1,lung metastasis: number of GFP+ cells in 5×10^5 lung cells,LL2 cells; single 10 mg/mouse i.v. one day after (d1),significantly reduced
same,lung metastasis: number of GFP+ cells in 5×10^5 lung cells,LL2 cells; single 10 mg/mouse i.v. one day before (d-1),significantly reduced
same,"spontaneous lung metastasis (tumor cells per field of view, X-gal)",LacZ-LL2 cells,significantly reduced
same,Tumor volume (tumor growth),B16 melanoma cells [3],significantly reduced
same,Tumor volume (melanoma growth) compared with PD1 Ab,"B16F10 melanoma cells; 20 mg/mouse i.p. every 2 days from day 6, PD1 200 mg/mouse",better outcomes than PD1 Ab
same,"tumor density of CD4 T cells (% positively stained areas, IHC)",B16F10 melanoma cells; tumors excised day 15,increased tumor densities
same,"tumor density of CD8 T cells (% positively stained areas, IHC)",B16F10 melanoma cells; tumors excised day 15,increased tumor densities
same,"tumor density of CD11b (% positively stained areas, IHC)",B16F10 melanoma cells; tumors excised day 15,decreased densities
same,"tumor density of microvacuoles (CD31, % positively stained areas, IHC)",B16F10 melanoma cells; tumors excised day 15,decreased densities
same,competition with DC-HIL-Fc for binding to Glycan #12 (% inhibition),[4],compete for a similar binding site
same,"T cell replication (activation), 3H-thymidine cpm",Pan-T cells,significantly less replication
same,decrease of human melanoma in lung (GFP+ cells in 5×10^5 lung cells),[5],84%
same,lung metastasis: number of GFP+ cells in 5×10^5 lung cells,"B16 cells; B16 i.v., single 10 mg/mouse i.v. one day before (d-1), day 12, vs KLH",significantly reduced
same,growth of B16 metastasis (GFP+ cells in 5×10^5 lung cells) compared to other treatments,"B16 cells; single i.v. 10 mg/mouse one day before B16 i.v., Day 14, comparators anti-PDL1, anti-VEGFR2 200 mg/mouse","inhibited growth of B16 metastasis, more than currently FDA-approved drugs"
same,affinity for Glycan #12 (fluorescence intensity on HS glycan microarray),[6],robust affinity
